Laboratory results from publication doi:10.1101/2020.10.30.361790.
Square brackets hold non-standard residues; d marks the D form. Ends that are not written are not given here. * marks the point of attachment. Biotin = O=C1N[C@H]2[C@H](CS[C@H]2CCCCC(=O)*)N1; pY = N[C@@H](Cc1ccc(OP(=O)(O)O)cc1)C(=O)O; Ahx = NCCCCCC(=O)O

Columns and labels:
[1] = target: fluorescein-ahx-ahx-GGpYGG; assay: fluorescence polarisation
[2] = target: fluorescein-ahx-ahx-EPQpYEEIPIYL; assay: fluorescence polarisation
[3] = target: biotin-ahx-ahx-EPQpYEEIPIYL; assay: BLI
[4] = target: Fyn SH2 variant V17 (T4N/A5S/K8L), His-tag protein (human); assay: ELISA
[5] = target: Fyn SH2 variant V13 (T3S/T4R/S6A/K8L), His-tag protein (human); assay: ELISA
[6] = target: Fyn SH2 triple mutant superbinder (T4V/S6A/K8L), His-tag protein (human); assay: ELISA
[7] = target: Fyn SH2 variant V3 (T3S/T4W/A5G), His-tag protein (human); assay: ELISA
[8] = target: Fyn SH2 variant V24 (T3S/T4S/S6A/K8L), His-tag protein (human); assay: ELISA
[9] = target: Fyn SH2 variant V10 (T4V/K8L), His-tag protein (human); assay: ELISA
[10] = target: 9 of the 22 variants that have the K8L mutation (His-tag proteins); assay: ELISA

Row | Molecule | Kd [1] | Kd [2] | Kd [3] | koff [3] | further results
1 | Fyn SH2 triple mutant superbinder (T4V/S6A/K8L), His-tag protein (designed binder) | 680 nM | 20 nM | 55 nM | 0.000888 s⁻¹ | kon [3]: 16300 M⁻¹ s⁻¹
2 | Fyn SH2 variant V3 (T3S/T4W/A5G), His-tag protein (designed binder) | 1630 nM | 38 nM | 55 nM | 0.000463 s⁻¹ | 
3 | Fyn SH2 variant V10 (T4V/K8L), His-tag protein (designed binder) | 2700 nM | 32 nM |  |  | 
4 | Fyn SH2 variant V13 (T3S/T4R/S6A/K8L), His-tag protein (designed binder) | 620 nM | 12 nM |  |  | 
5 | Fyn SH2 variant V17 (T4N/A5S/K8L), His-tag protein (designed binder) |  | < 40 nM |  |  | fold affinity increase over the wild type Fyn SH2 domain [2]: 4 fold; fold weaker than the triple mutant [2]: 4 fold
6 | Fyn SH2 variant V24 (T3S/T4S/S6A/K8L), His-tag protein (designed binder) | 2570 nM | 23 nM |  |  | 
7 | wild type human Fyn SH2 domain (Cys-less), His-tag protein (from UniProt P06241 149-246) (domain or fragment) |  | 327 nM | 154 nM | 0.01 s⁻¹ | kon [3]: 64800 M⁻¹ s⁻¹
8 | {Biotin-Ahx-Ahx}-EPQ[pY]EEIPIYL [biotin-ahx-ahx-EPQpYEEIPIYL] |  |  |  |  | EC50 [4]: < 200 nM; EC50 [5]: < 200 nM; EC50 [6]: 21 nM; EC50 [7]: 15 nM; EC50 [8]: < 200 nM; EC50 [9]: 175 nM; EC50 [10]: 21 to 500 nM
